Reference: US20210132068A1

Target: CD20 on CD20+ Daudi lymphoma cells (UniProt P11836)
Assay: flow cytometry on CD20+ Daudi lymphoma cells, 30 minutes at 4° C.

Chain of UniProt P11836 (P11836 whole entry): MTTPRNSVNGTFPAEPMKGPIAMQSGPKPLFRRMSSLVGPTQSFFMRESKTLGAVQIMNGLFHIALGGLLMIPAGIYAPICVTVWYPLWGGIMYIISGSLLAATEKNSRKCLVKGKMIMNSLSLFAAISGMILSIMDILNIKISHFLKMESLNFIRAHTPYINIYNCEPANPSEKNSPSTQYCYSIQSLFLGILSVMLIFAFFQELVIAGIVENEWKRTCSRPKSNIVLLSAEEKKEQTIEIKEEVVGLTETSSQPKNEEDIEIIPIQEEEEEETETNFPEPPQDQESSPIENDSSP

Question: FITC-rituximab (antibody) was tested. Which % positive cells did it give?
Answer: 95%
